Here are results for two substances from patent US20240299510A1.

For one test, the target named is human PCSK9 (human) (UniProt Q8NBP7). The test can be described thus: BLI (Octet) blocking; wt PCSK9 on Ni-NTA sensor, 50 ug/ml AMG145 for 300 s, then NHP serum (competitor) at 200-fold dilution.
For test [1], the target named is HIT01-K21Q-R218E. The test can be described thus: BLI (Octet); antibody IgG 50 ug/ml on AHC sensor, immunogen from 500 nM in 2x dilutions.
The target in a further test is HIT01-Combo3. The test is described as above.
Test [2] deals with HIT01-K21Q-R218E. The test can be described thus: BLI (Octet) blocking; HIT01-K21Q-R218E on Ni-NTA sensor, 50 ug/ml AMG145 for 300 s, then NHP serum (competitor) at 200-fold dilution.

In general, Kd refers to the equilibrium constant for the complex coming apart. Turning to AMG145 (antibody), the reduction of serum response when the probe is blocked with human PCSK9 (human) and with HIT01-K21Q-R218E [2] was 50% each time. Further, the Kd in the test with HIT01-K21Q-R218E [1] was less than 0.001 nM; with HIT01-Combo3, 0.005 nM.

Turning to Alirocumab (antibody), the Kd in the test with HIT01-K21Q-R218E [1] is 58 nM; in the test with HIT01-Combo3, 112 nM.
